B1: HDV Ribozyme (parent)
chain: GGCCGGCAUGGUCCCAGCCUCCUCGCUGGCGCCGGCUGGGCAACAUUCCGAGGGGACCGUCCCCUCGGUAAUGGCGAAUGGGACCCA

Variants of: B1
Assay: self-cleavage, relative activity (ratio to wild type); higher = more cleavage; co-transcriptional

In order of rising self-cleavage:
1. AGCCGGCAUGGUCCCAGCCUCCUCGCUGGCGCCGGCUGGGCAACAUUCCGAGGGGACCGUCCCCUCGGUUAUGGCGAAUGGGACCCA [G1A A70U]  0
2. AGCCGGCAUGGUCCCAGCCUCCUCGUUGGCGCCGGCUGGGCAACAUUCCGAGGGGACCGUCCCCUCGGUAAUGGCGAAUGGGACCCA [G1A C26U]  0
3. AGCCGGCAUGGUCCCAGCCUCCUCGGUGGCGCCGGCUGGGCAACAUUCCGAGGGGACCGUCCCCUCGGUAAUGGCGAAUGGGACCCA [G1A C26G]  0
4. AGCCGGCAUGGUCCCAGCCUCCUCGCUGGCGCCGGCUGGGCAACAUUCCGAGGGGACCGUCCCCUCGGUAAUGGCGAGUGGGACCCA [G1A A78G]  0
5. AGCCGGCAUGGUCCCAGCCUCCUCGCUGGCGCCGGCUGGGCAACAUUCCGAGGGGACCGUCCCCUCGGUAAUGGCGAAUGGGUCCCA [G1A A83U]  0
6. AGCCGGCAUGGUGCCAGCCUCCUCGCUGGCGCCGGCUGGGCAACAUUCCGAGGGGACCGUCCCCUCGGUAAUGGCGAAUGGGACCCA [G1A C13G]  0
7. AGCCGGCAUGGUCCCAGCCUCCUCGCUGGCGCCGGCUGGGCAACAUUCCGAGGGGACCGUCCCCUCGGUAAUGGCGUAUGGGACCCA [G1A A77U]  0
8. AGCCGGGAUGGUCCCAGCCUCCUCGCUGGCGCCGGCUGGGCAACAUUCCGAGGGGACCGUCCCCUCGGUAAUGGCGAAUGGGACCCA [G1A C7G]  0.0405
9. AGCCGGCAUGGUCCCAGCCUCCUCGCUGGCGCCGGCUGGGCAACAUUCCGAGGGGACCGUCCCCUCGGUAAUGGCGAUUGGGACCCA [G1A A78U]  0.0449
10. AGCCGGCAUGGUCCCAGCCUCCUCGCUGGCGCCGGCUGGGCAACAUUCCGAGGGGACCGUCGCCUCGGUAAUGGCGAAUGGGACCCA [G1A C62G]  0.0519
11. AGCCGGCAUGGUCCCAGCCUCCUCGCUGGUGCCGGCUGGGCAACAUUCCGAGGGGACCGUCCCCUCGGUAAUGGCGAAUGGGACCCA [G1A C30U]  0.0554
12. AGCCGGCAUGGUCACAGCCUCCUCGCUGGCGCCGGCUGGGCAACAUUCCGAGGGGACCGUCCCCUCGGUAAUGGCGAAUGGGACCCA [G1A C14A]  0.0573
13. AGCCGGCAUGGUACCAGCCUCCUCGCUGGCGCCGGCUGGGCAACAUUCCGAGGGGACCGUCCCCUCGGUAAUGGCGAAUGGGACCCA [G1A C13A]  0.0639
14. AGCCGGCAUGGUCCCAGCAUCCUCGCUGGCGCCGGCUGGGCAACAUUCCGAGGGGACCGUCCCCUCGGUAAUGGCGAAUGGGACCCA [G1A C19A]  0.0744
15. AGCCGGCAUGGUCCCAGCCUCUUCGCUGGCGCCGGCUGGGCAACAUUCCGAGGGGACCGUCCCCUCGGUAAUGGCGAAUGGGACCCA [G1A C22U]  0.0779
16. AGCCGGCAUGGUCCCAGCCUCCUCGCUGGCGCCGGCUGGGCAACAUUCCGAGGGGACCGUCACCUCGGUAAUGGCGAAUGGGACCCA [G1A C62A]  0.0791
17. AGCCGGCAUGGUCCCAGCCUCAUCGCUGGCGCCGGCUGGGCAACAUUCCGAGGGGACCGUCCCCUCGGUAAUGGCGAAUGGGACCCA [G1A C22A]  0.0831
18. AGCCGGCAUGGUCCCAGCUUCCUCGCUGGCGCCGGCUGGGCAACAUUCCGAGGGGACCGUCCCCUCGGUAAUGGCGAAUGGGACCCA [G1A C19U]  0.101
19. AGCCGGCAUGGUCCCAGCCUACUCGCUGGCGCCGGCUGGGCAACAUUCCGAGGGGACCGUCCCCUCGGUAAUGGCGAAUGGGACCCA [G1A C21A]  0.104
20. AGCCGGCAUGGUCCCAGCCUCCUUGCUGGCGCCGGCUGGGCAACAUUCCGAGGGGACCGUCCCCUCGGUAAUGGCGAAUGGGACCCA [G1A C24U]  0.111
21. AGCCGGCAUGGUCCCAGCCUCCUCGAUGGCGCCGGCUGGGCAACAUUCCGAGGGGACCGUCCCCUCGGUAAUGGCGAAUGGGACCCA [G1A C26A]  0.119
22. AGCCGGCAUGGUCCCAGCCUCCUAGCUGGCGCCGGCUGGGCAACAUUCCGAGGGGACCGUCCCCUCGGUAAUGGCGAAUGGGACCCA [G1A C24A]  0.119
23. AGCCGGCAUGGUUCCAGCCUCCUCGCUGGCGCCGGCUGGGCAACAUUCCGAGGGGACCGUCCCCUCGGUAAUGGCGAAUGGGACCCA [G1A C13U]  0.119
24. AGCCGGCAUGGUCCCAGCCUUCUCGCUGGCGCCGGCUGGGCAACAUUCCGAGGGGACCGUCCCCUCGGUAAUGGCGAAUGGGACCCA [G1A C21U]  0.121
25. AGCCGGCAUGGUCCCAGCCUCCUCGCUGGCGCCGGCUGGGCAACAUUCCGAGGGGACCGUCCCCUCGGUAAUGGCGAAUGGGACCCG [G1A A87G]  0.141
26. AGCCGGCAUGGUCCCAGCCUCCUCGCUGGCGCCGGCUGGGCAACAUUCCGAGGGGACCGUCCCCUCGGUCAUGGCGAAUGGGACCCA [G1A A70C]  0.192
27. AGCCGGCAUGGUCCCAGCCUCCUCGCUGGCGCCGGCUGGGCAACAUUCCGAGGGGACCGUCCCCUCGGUAAUGGCGAAUGGGGCCCA [G1A A83G]  0.219
28. AGCCGGCAUGGUCCCAGCCUCCUCGCUGGCGCCGGCUGGGAAACAUUCCGAGGGGACCGUCCCCUCGGUAAUGGCGAAUGGGACCCA [G1A C41A]  0.222
29. AGCCGGCAUGGUCCCAGCCUCCUCGCUGGCGCCGGCUGGGUAACAUUCCGAGGGGACCGUCCCCUCGGUAAUGGCGAAUGGGACCCA [G1A C41U]  0.237
30. AGCCGGCAUGGUCCCAGCCUCCUCGCUGGCGCCGGCUGGGCAACAUUCCGAGGGGACCGUCCCCUCGGUAAUGGCGGAUGGGACCCA [G1A A77G]  0.237
31. AGUCGGCAUGGUCCCAGCCUCCUCGCUGGCGCCGGCUGGGCAACAUUCCGAGGGGACCGUCCCCUCGGUAAUGGCGAAUGGGACCCA [G1A C3U]  0.297
32. AGCCGGCAUGGUCUCAGCCUCCUCGCUGGCGCCGGCUGGGCAACAUUCCGAGGGGACCGUCCCCUCGGUAAUGGCGAAUGGGACCCA [G1A C14U]  0.415

Source: the RNAGym collection of RNA variant scans (doi:10.7554/elife.80360)
